In patent publication US20250340635A1 (HEFEI TG IMMUNOPHARMA, published 2025):

Columns and labels:
[1] = target: T1, human MICA-His fusion protein (human, UniProt Q29983 24-307); assay: ELISA, MICA-His coated, anti-human HRP
T1 construct: extracellular domain; also called MICA extracellular region His tag fusion protein; not shown: His tag
T1 sequence (looked up): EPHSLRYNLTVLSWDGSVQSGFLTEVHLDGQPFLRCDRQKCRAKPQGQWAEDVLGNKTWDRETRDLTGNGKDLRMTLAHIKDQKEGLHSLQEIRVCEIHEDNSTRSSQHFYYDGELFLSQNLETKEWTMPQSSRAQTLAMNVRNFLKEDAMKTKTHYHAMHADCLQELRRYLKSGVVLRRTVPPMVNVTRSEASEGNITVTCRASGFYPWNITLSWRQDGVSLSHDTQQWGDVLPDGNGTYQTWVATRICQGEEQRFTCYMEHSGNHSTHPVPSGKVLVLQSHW

[2] = target: T2, human NKp46-His fusion protein (human, UniProt O76036 22-258); assay: ELISA, NKp46-His coated, anti-human HRP
T2 construct: Bought from Acro; also called NKp46 extracellular region His tag fusion protein; not shown: His tag
T2 sequence (O76036 22-258 Q82K): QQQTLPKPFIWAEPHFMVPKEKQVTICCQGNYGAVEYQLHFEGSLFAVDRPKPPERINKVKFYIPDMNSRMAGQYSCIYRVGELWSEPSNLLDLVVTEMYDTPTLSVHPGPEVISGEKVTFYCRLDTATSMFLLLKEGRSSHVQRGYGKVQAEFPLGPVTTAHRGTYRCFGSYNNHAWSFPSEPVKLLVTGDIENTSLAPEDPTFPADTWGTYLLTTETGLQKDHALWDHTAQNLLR

B1: murine 10D10×MICA bispecific antibody (bispecific antibody, human IgG1, kappa, L234A L235A)
chain: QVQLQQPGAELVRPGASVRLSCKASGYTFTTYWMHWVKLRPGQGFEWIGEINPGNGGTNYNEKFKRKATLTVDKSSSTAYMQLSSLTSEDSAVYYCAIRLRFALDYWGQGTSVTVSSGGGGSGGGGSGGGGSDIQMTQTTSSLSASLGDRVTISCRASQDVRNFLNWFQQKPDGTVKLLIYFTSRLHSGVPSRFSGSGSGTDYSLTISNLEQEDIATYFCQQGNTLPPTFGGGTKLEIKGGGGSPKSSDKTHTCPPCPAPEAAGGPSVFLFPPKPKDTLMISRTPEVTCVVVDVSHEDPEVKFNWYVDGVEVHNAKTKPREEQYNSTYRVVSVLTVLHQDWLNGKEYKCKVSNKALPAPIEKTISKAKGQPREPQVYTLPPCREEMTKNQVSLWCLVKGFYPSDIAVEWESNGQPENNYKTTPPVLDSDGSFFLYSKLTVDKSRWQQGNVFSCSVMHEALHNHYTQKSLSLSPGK
heavy: QVQLQESGPGLVKPSETLSLTCTVSGFSLTTYGVHWIRQPPGKGLEWIGMIWTDATTDYNAAFISRVTISVDTSKNQFSLKLSSVTAADTAVYYCARKGHGYYYAMDYWGQGTLVTVSSASTKGPSVFPLAPSSKSTSGGTAALGCLVKDYFPEPVTVSWNSGALTSGVHTFPAVLQSSGLYSLSSVVTVPSSSLGTQTYICNVNHKPSNTKVDKKVEPKSCDKTHTCPPCPAPEAAGGPSVFLFPPKPKDTLMISRTPEVTCVVVDVSHEDPEVKFNWYVDGVEVHNAKTKPREEQYNSTYRVVSVLTVLHQDWLNGKEYKCKVSNKALPAPIEKTISKAKGQPREPQVCTLPPSREEMTKNQVSLSCAVKGFYPSDIAVEWESNGQPENNYKTTPPVLDSDGSFFLVSKLTVDKSRWQQGNVFSCSVMHEALHNHYTQKSLSLSPGK
light: EIVLTQSPGTLSLSPGERATLSCTASSSVSSSYLHWYQQKPGQAPRLLIYSTSNLASGIPDRFSGSGSGTDFTLTISRLEPEDFAVYYCHQYHRSPFTFGQGTKLEIKRTVAAPSVFIFPPSDEQLKSGTASVVCLLNNFYPREAKVQWKVDNALQSGNSQESVTEQDSKDSTYSLSSTLTLSKADYEKHKVYACEVTHQGLSSPVTKSFNRGEC
notes: First chain is the murine 10D10 ScFv-Fc (knob); the heavy and light chains are those of the MICA antibody (hole); knob-into-hole heterodimer; also called NKp46 (murine 10D10)×MICA bispecific antibody
B1: binds [1]; binds [2].

B2: humanized 10D10×MICA bispecific antibody (bispecific antibody, human IgG1, kappa, L234A L235A)
chain: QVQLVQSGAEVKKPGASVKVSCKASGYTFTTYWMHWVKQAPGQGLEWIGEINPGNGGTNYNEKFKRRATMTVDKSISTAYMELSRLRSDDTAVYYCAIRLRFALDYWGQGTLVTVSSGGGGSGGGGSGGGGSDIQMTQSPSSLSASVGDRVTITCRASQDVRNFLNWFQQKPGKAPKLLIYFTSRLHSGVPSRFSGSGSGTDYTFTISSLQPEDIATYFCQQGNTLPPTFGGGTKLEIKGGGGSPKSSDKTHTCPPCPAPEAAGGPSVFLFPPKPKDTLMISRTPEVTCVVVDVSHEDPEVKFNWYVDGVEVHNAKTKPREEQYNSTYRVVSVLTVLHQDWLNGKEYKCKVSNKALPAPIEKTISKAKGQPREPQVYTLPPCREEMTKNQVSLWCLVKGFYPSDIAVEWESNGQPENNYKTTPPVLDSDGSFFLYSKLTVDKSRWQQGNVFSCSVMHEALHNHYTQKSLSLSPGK
heavy: QVQLQESGPGLVKPSETLSLTCTVSGFSLTTYGVHWIRQPPGKGLEWIGMIWTDATTDYNAAFISRVTISVDTSKNQFSLKLSSVTAADTAVYYCARKGHGYYYAMDYWGQGTLVTVSSASTKGPSVFPLAPSSKSTSGGTAALGCLVKDYFPEPVTVSWNSGALTSGVHTFPAVLQSSGLYSLSSVVTVPSSSLGTQTYICNVNHKPSNTKVDKKVEPKSCDKTHTCPPCPAPEAAGGPSVFLFPPKPKDTLMISRTPEVTCVVVDVSHEDPEVKFNWYVDGVEVHNAKTKPREEQYNSTYRVVSVLTVLHQDWLNGKEYKCKVSNKALPAPIEKTISKAKGQPREPQVCTLPPSREEMTKNQVSLSCAVKGFYPSDIAVEWESNGQPENNYKTTPPVLDSDGSFFLVSKLTVDKSRWQQGNVFSCSVMHEALHNHYTQKSLSLSPGK
light: EIVLTQSPGTLSLSPGERATLSCTASSSVSSSYLHWYQQKPGQAPRLLIYSTSNLASGIPDRFSGSGSGTDFTLTISRLEPEDFAVYYCHQYHRSPFTFGQGTKLEIKRTVAAPSVFIFPPSDEQLKSGTASVVCLLNNFYPREAKVQWKVDNALQSGNSQESVTEQDSKDSTYSLSSTLTLSKADYEKHKVYACEVTHQGLSSPVTKSFNRGEC
notes: First chain is the humanized h10D10 ScFv-Fc (knob); the heavy and light chains are those of the MICA antibody (hole); also called h10D10×MICA; NKp46 (humanized 10D10)×MICA bispecific antibody
B2: binds [1]; binds [2].
